Reference: article PMC3915903 (Cell Research, 2013)
Residue numbers refer to the chain shown, from its start. Names and notes keep the numbering of the source.

B1: Human PTPA, wild-type (natural protein)
chain: MAEGERQPPPDSSEEAPPATQNFIIPKKEIHTVPDMGKWKRSQAYADYIGFILTLNEGVKGKKLTFEYRVSEAIEKLVALLNTLDRWIDETPPVDQPSRFGNKAYRTWYAKLDEEAENLVATVVPTHLAAAVPEVAVYLKESVGNSTRIDYGTGHEAAFAAFLCCLCKIGVLRVDDQIAIVFKVFNRYLEVMRKLQKTYRMEPAGSQGVWGLDDFQFLPFIWGSSQLIDHPYLEPRHFVDEKAVNENHKDYMFLECILFITEMKTGPFAEHSNQLWNISAVPSWSKVNQGLIRMYKAECLEKFPVIQHFKFGSLLPIHPVTSG
B2: PTPA V281A (natural protein)
chain: B1 chain with V281A
B3: PTPA M294K (natural protein)
chain: B1 chain with M294K
B4: PTPA R293E (natural protein)
chain: B1 chain with R293E
B5: PTPA F100D (natural protein)
chain: B1 chain with F100D
B6: PTPA V209D (natural protein)
chain: B1 chain with V209D

Biological target: GST-tagged PP2A core enzyme (AC heterodimer) (human, UniProt P30153;P67775)
Assay: pull-down

GST-tagged PP2A core enzyme (AC heterodimer), sequence (P30153 whole entry, chain 1 of 2): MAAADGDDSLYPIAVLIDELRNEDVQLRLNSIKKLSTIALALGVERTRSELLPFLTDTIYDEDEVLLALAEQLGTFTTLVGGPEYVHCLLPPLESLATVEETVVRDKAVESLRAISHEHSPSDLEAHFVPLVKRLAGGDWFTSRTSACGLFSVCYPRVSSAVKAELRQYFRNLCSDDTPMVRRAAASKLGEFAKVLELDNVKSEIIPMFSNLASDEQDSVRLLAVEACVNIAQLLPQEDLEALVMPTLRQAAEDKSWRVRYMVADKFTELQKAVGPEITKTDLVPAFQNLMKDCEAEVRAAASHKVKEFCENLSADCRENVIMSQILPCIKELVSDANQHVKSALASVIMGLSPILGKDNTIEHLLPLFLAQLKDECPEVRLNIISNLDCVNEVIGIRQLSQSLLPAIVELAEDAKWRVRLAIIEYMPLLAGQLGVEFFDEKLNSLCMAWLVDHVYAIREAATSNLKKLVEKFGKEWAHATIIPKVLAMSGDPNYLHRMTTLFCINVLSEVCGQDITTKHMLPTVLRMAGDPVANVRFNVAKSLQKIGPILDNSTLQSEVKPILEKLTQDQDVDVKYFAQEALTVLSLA
GST-tagged PP2A core enzyme (AC heterodimer), sequence (P67775 whole entry, chain 2 of 2): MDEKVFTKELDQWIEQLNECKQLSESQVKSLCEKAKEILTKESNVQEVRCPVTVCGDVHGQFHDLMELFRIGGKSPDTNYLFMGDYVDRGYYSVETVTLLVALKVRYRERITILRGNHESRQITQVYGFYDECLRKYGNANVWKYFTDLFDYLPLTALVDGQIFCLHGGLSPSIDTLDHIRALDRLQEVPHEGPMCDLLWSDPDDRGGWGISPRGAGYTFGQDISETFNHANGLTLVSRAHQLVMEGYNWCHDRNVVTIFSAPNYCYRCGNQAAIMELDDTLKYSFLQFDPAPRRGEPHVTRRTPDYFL

binding result | Binder
binds | B1
binds | B2
binds | B3
binds | B4
binds | B5
binds | B6
